± gives the uncertainty stated by the source.
assay: amyloid nucleation score (Sup35N fusion, yeast selection) (log enrichment); library NNK1; higher = more nucleation; inactive = no reads after selection
How it was run: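 Libraries of peptides of 20 random codons fused to Sup35N were expressed in psi-negative yeast and induced 24 hours with 100 μM copper sulfate. Selection was 7 days at 30°C on medium lacking adenine and uracil, and plasmid inserts were Illumina-sequenced before and after selection. Nucleation score is the DiMSum log enrichment of output over input reads, centred on the mode score of non-aggregating sequences, and sequences with under 100 input reads were left out.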

Row | Substance | amyloid nucleation score
1 | GRPLCSRPMILHMHNITLRM | 1.05 ± 0.97
2 | GRSAVAFISPPLSLRIAQCP | 0.252 ± 0.28
3 | GRSCFGEHILNTPAISCNIT | -0.288 ± 0.35
4 | GRSSTRRNLIVDQSSVSERC | -0.009 ± 0.53
5 | GRSTNSSDISNHMRNS | 0.961 ± 0.31
6 | GRTFVHSLWACNNSYCSL | 6.85 ± 0.088
7 | GRTLVLDFTHHPPILRVPLR | 0 ± 0.48
8 | GRVFAVSYFVRAGLVNEG | 0.082 ± 0.7
9 | GRVFSFMIGFFVALTERTRA | -0.037 ± 1.7
10 | GRVQGNFLINRVCRWWGVAG | 0.182 ± 0.56
11 | GSADMRLDLQVVGCMTCRFE | 0.386 ± 1.1
12 | GSADSFRGYGCFILVKATWY | 0.717 ± 0.46
13 | GSATRTPVITQRICLPVGCR | -0.691 ± 0.56
14 | GSCFLCKI | 0.686 ± 0.53
15 | GSCLFVRGSFVDVGRLFESV | 0.643 ± 0.67
16 | GSDCSKAAFDPPFRSYDNAT | 0.429 ± 0.33
17 | GSDNLDFRCNWVYN | 0.616 ± 0.69
18 | GSHIVLSSFFGMLMLWGVDP | 0.56 ± 0.39
19 | GSHNAR | 0.086 ± 0.97
20 | GSHYP | 0.586 ± 0.56
21 | GSIIMWHYGYYHGCNFYCCH | 6.98 ± 0.07
22 | GSLSVAATSFTVMYRVKLVF | 0.085 ± 0.58
23 | GSMEHCNRNRFFFMGERLLR | -1.1 ± 2.7
24 | GSPMFLRIYLETYLPTYELS | 0.739 ± 0.42
25 | GSTCIRTGSVIVGRL | 0.301 ± 0.28

Row | Substance | amyloid nucleation score
26 | GSTNERYAKNGTS | 0.32 ± 0.68
27 | GSVCHILVGWVAYMWVF | -1.18 ± 1.2
28 | GSVINGWRRYLFVISILLGL | -0.374 ± 0.32
29 | GSWCSRIK | 0.958 ± 0.35
30 | GSYFGKGSVK | 0.563 ± 0.97
31 | GSYLCLMTFFSLYEQHSCCC | inactive
32 | GTDYIKVSASPRSFMYDSSV | 1.88 ± 0.62
33 | GTFSDAFVLLIFCLYGINYL | 1.54 ± 0.53
34 | GTHLYS | 0.78 ± 0.38
35 | GTVVG | 0.041 ± 0.54
36 | GTWLSMLDSSV | -0.32 ± 0.79
37 | GTYLAFYSLSLCRYTKCLER | -0.22 ± 0.47
38 | GVACTARCMCKFNRHPGVCE | -0.274 ± 1.1
39 | GVCALAHRAPIWDQFVGMLV | 0.109 ± 0.28
40 | GVCRDAVGGVTYDK | -0.363 ± 1.5
41 | GVCVKGKRWDAEGVLRNAYT | 1.41 ± 0.46
42 | GVFRLMDRNNI | 0.653 ± 0.61
43 | GVFSSQDTRAIDLCSGVYVM | 0.003 ± 1.2
44 | GVGEIVSNRFAIS | -0.409 ± 1
45 | GVGWISKPNHLDTFITTS | 0.738 ± 0.35
46 | GVLGTGMRNCA | 0.277 ± 0.88
47 | GVLRSSTSTVRGSCAGFHRL | 0.29 ± 0.43
48 | GVMYLKRKLRCYMGINYVFH | 0.074 ± 0.31
49 | GVNLRSNRESSVCDNWRGLR | 0.423 ± 0.42
50 | GVQWKLIFIGQCAVAVAWLA | -2.05 ± 1.8

Row | Substance | amyloid nucleation score
51 | GVSMVGGHATLLG | -0.206 ± 1.2
52 | GVSSLLGRHRRGVSFEGDSV | -0.65 ± 0.54
53 | GVTYKPYGVSNW | -0.616 ± 0.69
54 | GVVCCTANF | 5.68 ± 0.065
55 | GVVGYGIWHSLGVRLIQNLC | 0.389 ± 0.93
56 | GVYARQIFYNS | 0.021 ± 0.24
57 | GWDYLFFLFTFCYV | -0.771 ± 1.1
58 | GWQDSLYLYYFTKFCRNQGG | -0.559 ± 0.46
59 | GWQGL | -0.202 ± 0.53
60 | GYAFVY | -0.037 ± 0.52
61 | GYCTPNDPVIFWDFRVMTGS | -0.544 ± 0.3
62 | GYELSMKATIRVVCRAIYFC | 0.62 ± 0.41
63 | GYGNRNLALARGMLGQIL | 0.215 ± 0.46
64 | GYGWHLSANNPVSNIRCPRA | -0.407 ± 0.42
65 | GYLSHII | -0.112 ± 0.51
66 | GYMSKLEYLPTQLYLLSLRE | 0.85 ± 0.44
67 | GYNMTKAYQCVCFIGDLPGT | 4.61 ± 0.13
68 | GYNSVYHLSNVALR | 0.928 ± 0.32
69 | GYNWGFVHCSYRSSHFGSGF | 0.348 ± 0.26
70 | GYSAYRFGQCMSETGRRRIH | 1.42 ± 0.72
71 | GYSGLLYVSRVVSYLIHFWV | 0.702 ± 0.47
72 | GYSNFTNYLFQ | 0.091 ± 0.28
73 | GYTLRPNERPKIRQV | 0.244 ± 0.63
74 | HAFFHYWPVCQWV | 4.57 ± 0.1
75 | HATMVSALLVWGW | -0.286 ± 1.9

Row | Substance | amyloid nucleation score
76 | HCFYYCMANRL | 0.488 ± 0.24
77 | HCIPLALICGGSSSPVVEYL | 0.686 ± 0.43
78 | HCLSFMIFESNLIIFMNRIR | 0.222 ± 0.2
79 | HCMGGNLFLF | -0.463 ± 0.47
80 | HCPELLLPPSKCTIINGNDK | 1.52 ± 0.38
81 | HCPKAVGINEWPEMRFYVNL | -0.05 ± 0.96
82 | HDFYEDIVMEYVL | 1.55 ± 0.51
83 | HDIAIMSSVGFSTAHDICSE | 0.26 ± 0.99
84 | HDPDPVDYGCGWVSVSCGVA | 0.819 ± 0.82
85 | HDSSF | -0.038 ± 0.56
86 | HESNMSMYYERYMLLSRNGS | 0.269 ± 0.23
87 | HFAPLFDYNLTGIKTLKTAD | 0.1 ± 0.77
88 | HFASRLMRKEFAVRFLRGFS | -0.608 ± 1.2
89 | HFCMGWVYLPELMYRFYMCF | -0.494 ± 0.35
90 | HFFDCHNSIEVSLISSCVCV | 3.97 ± 0.065
91 | HFFNVYGSNMVISSWDSRCE | 6.23 ± 0.076
92 | HFLVKCLLLLSVSSKLCVSR | 0.564 ± 0.33
93 | HFLVMITRL | 5.15 ± 0.091
94 | HFNFNFAQSRNEMLVASG | -1.16 ± 1.6
95 | HFSGYMFCNPLTSGIVNATW | 6.404 ± 0.045
96 | HFSNIDNARNCSDSYWRYGI | 0.168 ± 0.3
97 | HGLLHQVSVMPGIPSMAFNI | -0.016 ± 0.68
98 | HGMWNGFTILM | 3.26 ± 0.11
99 | HHKPRPNIQFFRYSCKERAS | 0.035 ± 1
100 | HHLVISCDSLENASYRLCIQ | 1.45 ± 0.43

Row | Substance | amyloid nucleation score
101 | HHPYFSAMM | 0.22 ± 0.54
102 | HHTQE | -0.557 ± 1.6
103 | HIGIWTIPSRKEGR | inactive
104 | HIKASDFIW | -0.333 ± 0.31
105 | HIMRDV | -1.13 ± 1.4
106 | HIMYSLKASSHWSPIVFSHH | 0.669 ± 0.59
107 | HIPYVYGPIIRGEATYTEGV | -0.29 ± 1.2
108 | HIVNCVKML | 0.788 ± 0.63
109 | HKCWVDGIVY | 0.577 ± 0.48
110 | HKTSKMLCLSI | 0.241 ± 0.9
111 | HLEGFYLGIWHGRSRVFSRN | 2.77 ± 0.23
112 | HLGGVWLLIHMRRSFPLDIW | 0.207 ± 0.7
113 | HLGLSNPFMMSFHV | -0.189 ± 0.34
114 | HLLSGMITCDDLHGCGLEGI | 0.344 ± 0.35
115 | HLRCCIKTLRVSHYGGPALR | -0.596 ± 0.37
116 | HLRNLKDFNVQPF | 0.635 ± 1.2
117 | HLVKHVLCSKCTFDVLIIIY | 1.08 ± 0.21
118 | HLVRRLYSKWMQT | -0.711 ± 0.96
119 | HLWSFAEMLNNHAVEDCVCT | inactive
120 | HMISVDITLVSLWRRIL | -0.402 ± 0.81
121 | HMVFQVKFWTNHRQVFSLPY | 2.91 ± 0.14
122 | HMVHGMFY | -0.251 ± 0.7
123 | HMWIEFSAVLFSYDMASSNV | -0.417 ± 0.52
124 | HMWSESQIVGRLYVYRNIVV | 0.747 ± 0.81
125 | HNKVATMW | 1.46 ± 0.25

Row | Substance | amyloid nucleation score
126 | HNLRVIFCY | 0.421 ± 0.58
127 | HNMGWLFLLAVYLQMFT | -0.765 ± 1.1
128 | HNWCRSSRRVVMSFMCKTKL | 0.412 ± 1.1
129 | HPFYIFAVYIFPYHCLSCSL | 0.331 ± 0.33
130 | HPYIWSVPDYKPFRAQAARV | -0.029 ± 1.6
131 | HQLLTVL | -0.997 ± 0.28
132 | HRLKTYIMVSFIYRADAVGI | 4.89 ± 0.068
133 | HRLRLSVVRAIYDTQIHQRA | -0.043 ± 0.34
134 | HRNWCCCCSCWSRLKMHLEL | -1.32 ± 0.64
135 | HRPYLCGISYGGSRCELYTA | 0.839 ± 0.75
136 | HRSTVAKSTRKLPGICSVFW | 0.845 ± 0.8
137 | HRSYHYMLLHTLEDRCRKN | inactive
138 | HSCRMYYSQRIYIPSNDGSD | 1.68 ± 0.29
139 | HSDCRFRKLGRTHTSMRVCC | 0.096 ± 0.49
140 | HSDFQDFMTDFGHDAFFKDW | 0.096 ± 0.4
141 | HSFFMFP | -0.39 ± 0.73
142 | HSGYTYDRRYPCNYDFSIQV | inactive
143 | HSKLFFLWHPWWL | inactive
144 | HSVSRCLVNEGNGFSFCKDP | 1.45 ± 0.39
145 | HSYCLLLWYG | -1.74 ± 1.9
146 | HTGIIVKEVAQL | -0.507 ± 1.9
147 | HTNVWGGAHYTSIKAN | 0.581 ± 0.31
148 | HVCSFLQAGAHWRRVAVCAG | 0.124 ± 0.73
149 | HVFCQRGCCERRLKIYISVS | -1.45 ± 0.57
150 | HVLADHYTMRGTNFVGYFHL | 4.88 ± 0.069

Row | Substance | amyloid nucleation score
151 | HVLHNWSDHDRN | 1.23 ± 0.55
152 | HVLLYCANFVIYTDVA | 2.45 ± 0.26
153 | HVLTQRRRMSFTVTRYHKRI | 1.1 ± 0.52
154 | HVMIFVIFPENYNICTFMKY | 2.29 ± 0.2
155 | HVNFNKGRMGGADSAVRCWW | -1.52 ± 1.8
156 | HVNLLNRTLCK | 0.151 ± 0.9
157 | HVTMKMIASSTMLDQHSWAR | -0.065 ± 0.32
158 | HVVVHDGSTQLWDARVRKWP | 0.558 ± 0.64
159 | HWCCIKSVGCIWIRKSVTRC | 0.204 ± 0.43
160 | HWNHYWQ | -0.07 ± 0.46
161 | HWRTCCWQEMLLMSALSRQG | -0.252 ± 0.46
162 | HWTYWIRI | -0.084 ± 1.6
163 | HYRYGGLAMFLVWIEMFLYW | 0.407 ± 1.1
164 | HYSRDSLVVWYI | -0.228 ± 0.56
165 | HYVFRHAWDSSFDVNVGLAQ | 0.564 ± 0.9
166 | IAIFKYVKRDSSGKNCLSRS | -0.242 ± 0.25
167 | IAIFMYCM | 7.467 ± 0.055
168 | IAILNLDNLGGYGCNCFHYF | 4.23 ± 0.13
169 | IALRL | 0.91 ± 0.4
170 | IAMSSYPLD | 1.02 ± 1.1
171 | IARFHTDSYHYRY | -0.08 ± 1.1
172 | IARYSTVYPVPHNCRNHKHS | 0.15 ± 1.1
173 | IASDRFF | 0.77 ± 0.97
174 | IATNRGMCLGLRVSGLDMAR | 1.13 ± 0.49
